According to the supplement of paper PMC11865577:

Tests used:
Test in all cases: pull-down binding Z-score (relative to library population); higher = stronger binding
Details in all cases: RNA library: Library-2
[1] = test system: TO-3-N3 (biotin conjugate)
In short: (§1)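 An RNA library (1 μg) carrying a Cy5 or Cy3 end label was heat-folded in phosphate/NaCl/KCl buffer, then incubated for 60 min at 25 °C with streptavidin beads loaded with 100 pmol of biotin-conjugated small molecule. The beads were washed three times, and bound RNA was released in hot SDS and hybridised to a DNA barcode microarray for 20 h at 55.5 °C. Each binding score was derived by subtracting the signal from beads without compound, averaging the barcoded replicate probes after removing the highest and lowest, and expressing the result as a Z-score relative to the library mean and standard deviation.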

[2] = test system: TO-3-N3-2 (biotin conjugate)
In short: as §1

[3] = test system: TO-N3 (biotin conjugate)
In short: as §1

[4] = test system: TO-N3-2 (biotin conjugate)
In short: as §1

Sequence: GUAUGAGCAGUAUAU [DMSMaPseq_invitro_SARS-CoV-2_Motif_451]
- pull-down binding Z-score [1]: -0.638
- pull-down binding Z-score [2]: -0.295
- pull-down binding Z-score [3]: -0.709
- pull-down binding Z-score [4]: -0.416

Sequence: GUCUCUGAAGAAGUAGUGGAAAAUCCUACCAUACAGAAAGAC
- pull-down binding Z-score [1]: -0.0809
- pull-down binding Z-score [2]: 0.0814
- pull-down binding Z-score [3]: 0.289
- pull-down binding Z-score [4]: 0.831

Sequence: CCUACUAAAAAGG
- pull-down binding Z-score [1]: 0.907
- pull-down binding Z-score [2]: 0.2
- pull-down binding Z-score [3]: 0.766
- pull-down binding Z-score [4]: -0.0122

Sequence: GCCAGCACAUGGUCCAGCCAAAAACAUGGAGUAUGAUGCUGUUGC [IAV_invivo_PB1_2_Motif_34+IAV_invivo_PB1_2_Motif_34]
- pull-down binding Z-score [1]: -0.602
- pull-down binding Z-score [2]: -0.346
- pull-down binding Z-score [3]: -0.304
- pull-down binding Z-score [4]: 1.43

Sequence: CUUCACAUAUGUAUUGUUCUUUUUACCCUCCAGAUGAGGAUGAAGAAGAAGGUGAUUGUGAAG
- pull-down binding Z-score [1]: -0.494
- pull-down binding Z-score [2]: -0.0402
- pull-down binding Z-score [3]: -0.606
- pull-down binding Z-score [4]: -1.19

Sequence: GCGCUGCCAGAAACUGGCUUGAGCGC [bulge-UUG]
- pull-down binding Z-score [1]: 1.04
- pull-down binding Z-score [2]: 0.543
- pull-down binding Z-score [3]: 0.932
- pull-down binding Z-score [4]: 0.434

Sequence: GAAGUUACAACAACUCUGGAAGAAACUAAGUUCCUCACAGAAAACUUGUUACUUU [DMSMaPseq_invitro_SARS-CoV-2_Motif_72]
- pull-down binding Z-score [1]: -0.508
- pull-down binding Z-score [2]: -0.321
- pull-down binding Z-score [3]: -0.304
- pull-down binding Z-score [4]: 0.97

Sequence: GCGCCGCCAGAAACUGGCUGCGC [mismatch-CU]
- pull-down binding Z-score [1]: 0.308
- pull-down binding Z-score [2]: -0.0148
- pull-down binding Z-score [3]: 0.00381
- pull-down binding Z-score [4]: -0.671

Sequence: GCAGACUUCAAAGUUUGC
- pull-down binding Z-score [1]: 0.23
- pull-down binding Z-score [2]: -0.0803
- pull-down binding Z-score [3]: -0.139
- pull-down binding Z-score [4]: -1.04

Sequence: AAAUUCUUGGAACUGUUUCUUGGAAUUU
- pull-down binding Z-score [1]: -0.802
- pull-down binding Z-score [2]: -0.163
- pull-down binding Z-score [3]: -1.22
- pull-down binding Z-score [4]: -1.37

Sequence: AGUUUUUGUACACAAUUAAACCGUGCUUUAACU
- pull-down binding Z-score [1]: -0.534
- pull-down binding Z-score [2]: -0.252
- pull-down binding Z-score [3]: -0.618
- pull-down binding Z-score [4]: -1.04

Sequence: GUUGAAGAAGUUACAAC
- pull-down binding Z-score [1]: 0.355
- pull-down binding Z-score [2]: 0.148
- pull-down binding Z-score [3]: 0.365
- pull-down binding Z-score [4]: -0.168

Sequence: CAAGAGAAGUGGGUUUUGUCGUGCCUGGUUUGCCUGGCACGAUAUUACGCACAACUAAUG
- pull-down binding Z-score [1]: -0.455
- pull-down binding Z-score [2]: -0.209
- pull-down binding Z-score [3]: -0.438
- pull-down binding Z-score [4]: -0.297

Sequence: CCCAGAUGAAGGCACAGCUGGAGUGGAGUCCGCUGUUCUGAGGGGAUUCCUCAUUCUGGG [IAV_invivo_PB2_1_Motif_33+IAV_invivo_PB2_1_Motif_33]
- pull-down binding Z-score [1]: -0.0325
- pull-down binding Z-score [2]: 0.166
- pull-down binding Z-score [3]: 0.671
- pull-down binding Z-score [4]: 1.54

Sequence: GCUGGCCUUGAAGCCCCUUUUCUCUAUCUUUAUGCUUUAGUCUACUUCUUGCAGAGUAUAAACUUUGUAAGAAUAAUAAUGAGGCUUUGGCUUUGC
- pull-down binding Z-score [1]: -0.79
- pull-down binding Z-score [2]: -0.413
- pull-down binding Z-score [3]: -0.969
- pull-down binding Z-score [4]: -0.575

Sequence: CAUUUGUAGUUUCAACUGGAUACCACUUCAGAGAGCUAGGUGUUGUACAUAAUCAGGAUGUAAACUUACAUAGCUCUAGACUUAGUUUUAAGGAAUUACUUGUG
- pull-down binding Z-score [1]: -0.927
- pull-down binding Z-score [2]: -0.292
- pull-down binding Z-score [3]: -0.109
- pull-down binding Z-score [4]: 0.127

Sequence: GUGGUGAGACACUUGGUGUCCUUGUCCCUCAUGUGGGCGAAAUACCAGUGGCUUACCGC
- pull-down binding Z-score [1]: 0.769
- pull-down binding Z-score [2]: -0.0757
- pull-down binding Z-score [3]: 0.798
- pull-down binding Z-score [4]: 0.812
